{
  "source": "patent US20030229005A1",
  "about": "(BIOZYME, published 2003)",
  "experiment_in_all_cases": "cell-based or functional assay",
  "key": {"[1]": {"biological_target": "T1, collagenase 1 (UniProt P03956 100-469, limits assumed)", "T1 sequence (looked up)": "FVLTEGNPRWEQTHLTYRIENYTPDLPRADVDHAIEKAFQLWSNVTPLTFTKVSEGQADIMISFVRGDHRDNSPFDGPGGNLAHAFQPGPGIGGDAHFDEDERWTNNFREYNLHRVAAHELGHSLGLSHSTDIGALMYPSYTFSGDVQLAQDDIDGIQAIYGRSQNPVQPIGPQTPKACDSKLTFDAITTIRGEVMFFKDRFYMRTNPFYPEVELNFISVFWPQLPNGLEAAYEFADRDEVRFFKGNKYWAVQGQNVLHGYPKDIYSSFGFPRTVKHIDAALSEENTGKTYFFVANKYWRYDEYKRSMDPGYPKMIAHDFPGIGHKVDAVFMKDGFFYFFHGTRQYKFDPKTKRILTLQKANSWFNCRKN"}, "[2]": {"biological_target": "T2, human Gelatinase-A (human, UniProt P08253 110-660, limits assumed)", "T2 sequence (looked up)": "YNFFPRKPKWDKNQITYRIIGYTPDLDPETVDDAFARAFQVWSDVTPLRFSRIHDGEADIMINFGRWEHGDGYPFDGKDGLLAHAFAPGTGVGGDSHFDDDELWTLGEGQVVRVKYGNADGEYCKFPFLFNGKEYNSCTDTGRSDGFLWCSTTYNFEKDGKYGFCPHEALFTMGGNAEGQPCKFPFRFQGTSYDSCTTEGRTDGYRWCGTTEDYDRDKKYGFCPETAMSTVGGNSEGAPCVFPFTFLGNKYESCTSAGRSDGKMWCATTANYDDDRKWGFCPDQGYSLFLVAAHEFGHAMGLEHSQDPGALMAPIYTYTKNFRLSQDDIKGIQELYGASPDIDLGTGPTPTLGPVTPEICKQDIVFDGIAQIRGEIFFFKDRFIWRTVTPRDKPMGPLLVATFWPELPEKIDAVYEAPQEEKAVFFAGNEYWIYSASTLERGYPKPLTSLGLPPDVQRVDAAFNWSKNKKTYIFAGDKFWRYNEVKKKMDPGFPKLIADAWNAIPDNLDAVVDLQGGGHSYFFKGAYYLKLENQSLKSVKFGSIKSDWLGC"}, "[3]": {"biological_target": "T3, gelatinase B (UniProt P14780 107-707, limits assumed)", "T3 sequence (P14780 107-707 limits assumed)": "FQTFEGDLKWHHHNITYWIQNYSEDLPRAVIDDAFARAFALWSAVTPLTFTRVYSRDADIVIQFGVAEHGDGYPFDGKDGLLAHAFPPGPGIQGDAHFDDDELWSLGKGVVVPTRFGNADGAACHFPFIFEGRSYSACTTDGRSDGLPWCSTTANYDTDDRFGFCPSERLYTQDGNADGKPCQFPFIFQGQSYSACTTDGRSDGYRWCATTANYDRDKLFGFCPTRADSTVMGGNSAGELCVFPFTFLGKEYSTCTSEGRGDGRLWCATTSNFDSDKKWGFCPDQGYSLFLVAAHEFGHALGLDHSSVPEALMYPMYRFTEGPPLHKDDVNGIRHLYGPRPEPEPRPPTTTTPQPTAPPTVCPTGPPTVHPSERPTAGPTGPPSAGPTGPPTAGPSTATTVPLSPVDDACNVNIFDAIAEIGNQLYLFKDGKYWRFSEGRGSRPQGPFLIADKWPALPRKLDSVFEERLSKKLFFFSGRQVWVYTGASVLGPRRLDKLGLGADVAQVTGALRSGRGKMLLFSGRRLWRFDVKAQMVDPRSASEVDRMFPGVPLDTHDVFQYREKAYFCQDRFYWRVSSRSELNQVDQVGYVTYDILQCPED"}, "[4]": {"biological_target": "T1, collagenase 1", "remark": "listed apart in the source"}, "[5]": {"biological_target": "T4, stromelysin 1 (UniProt P08254 100-477, limits assumed)", "T4 sequence (P08254 100-477 limits assumed)": "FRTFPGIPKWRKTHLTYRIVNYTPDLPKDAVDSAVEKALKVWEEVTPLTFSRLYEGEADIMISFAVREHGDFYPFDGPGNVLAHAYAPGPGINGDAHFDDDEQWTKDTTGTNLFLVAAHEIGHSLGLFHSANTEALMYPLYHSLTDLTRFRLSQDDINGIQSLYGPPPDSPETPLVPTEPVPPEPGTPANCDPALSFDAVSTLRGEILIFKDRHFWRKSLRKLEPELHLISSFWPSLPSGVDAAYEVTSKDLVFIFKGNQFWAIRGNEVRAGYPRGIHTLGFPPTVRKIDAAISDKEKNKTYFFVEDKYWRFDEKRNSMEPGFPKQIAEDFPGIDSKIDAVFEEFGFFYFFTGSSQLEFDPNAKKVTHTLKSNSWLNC"}, "[6]": {"biological_target": "human Collagenase-3 (human, UniProt P45452 104-471, limits assumed)"}, "[7]": {"biological_target": "T2, human Gelatinase-A", "remark": "listed apart in the source"}, "[8]": {"biological_target": "T3, gelatinase B", "remark": "listed apart in the source"}, "[9]": {"biological_target": "T1, collagenase 1", "remark": "listed apart in the source"}, "[10]": {"biological_target": "T4, stromelysin 1", "remark": "listed apart in the source"}},
  "note": "Primed or numbered codes have the meaning given here. The star is where a group is joined. Dabcyl′ = CN(C)c1ccc(/N=N/c2ccc(C(=O)*)cc2)cc1; fluorescein = fluorescein label",
  "data": [
    {"binder": "{Dabcyl′}-GPLGMRGC(fluorescein)-NH2", "note": "[Dabcyl-GPLGMRGC(Fluorescein)-NH2]", "values": [
      {"measurement": "selectivity towards Col-3", "setting": "[1]", "result": 215, "unit": "fold"},
      {"measurement": "Selectivity v Col-3, + Gel", "setting": "[2]", "result": 25.8, "unit": "unitless"},
      {"measurement": "Selectivity v Col-3, + Gel", "setting": "[3]", "result": 6.3, "unit": "unitless"},
      {"measurement": "Selectivity v Col-3, + Gel", "setting": "[4]", "result": 78.4, "unit": "unitless"},
      {"measurement": "Selectivity v Col-3, + Gel", "setting": "[5]", "result": 769, "unit": "unitless"}
    ]},
    {"binder": "{Dabcyl′}-GPVNLHGC(fluorescein)-NH2", "note": "[Dabcyl-GPVNLHGC(Flu)-NH2]", "values": [
      {"measurement": "increase in specificity with type II collagen", "setting": "[6]", "result": 2.5, "unit": "fold"},
      {"measurement": "Selectivity v Col-3", "setting": "[2]", "result": 2.3, "unit": "unitless"},
      {"measurement": "Selectivity v Col-3, + Gel", "setting": "[2]", "result": 26.5, "unit": "unitless"},
      {"measurement": "Selectivity v Col-3", "setting": "[3]", "result": 0.7, "unit": "unitless"},
      {"measurement": "Selectivity v Col-3, + Gel", "setting": "[3]", "result": 6, "unit": "unitless"},
      {"measurement": "Selectivity v Col-3", "setting": "[4]", "result": 128, "unit": "unitless"},
      {"measurement": "Selectivity v Col-3, + Gel", "setting": "[4]", "result": 92.3, "unit": "unitless"},
      {"measurement": "Selectivity v Col-3", "setting": "[5]", "result": 71.3, "unit": "unitless"},
      {"measurement": "Selectivity v Col-3, + Gel", "setting": "[5]", "result": 72.5, "unit": "unitless"},
      {"measurement": "Improvement In Selectivity for 44 ug/ml Type II Collagen vs no Type II Collagen", "setting": "[7]", "result": 80, "unit": "fold"},
      {"measurement": "Selectivity v Col-3, + 1.6 ug/ml TIICol", "setting": "[7]", "result": 9.3, "unit": "unitless"},
      {"measurement": "Selectivity v Col-3, + 4.9 ug/ml TIICol", "setting": "[7]", "result": 26.3, "unit": "unitless"},
      {"measurement": "Selectivity v Col-3, + 15 ug/ml TIICol", "setting": "[7]", "result": 75.9, "unit": "unitless"},
      {"measurement": "Selectivity v Col-3, + 44 ug/ml TIICol", "setting": "[7]", "result": 465, "unit": "unitless"},
      {"measurement": "Selectivity v Col-3, + .18 ug/ml TIICol", "setting": "[7]", "result": 7.7, "unit": "unitless"},
      {"measurement": "Selectivity v Col-3, + .55 ug/ml TIICol", "setting": "[7]", "result": 9.9, "unit": "unitless"},
      {"measurement": "Selectivity v Col-3, no TIICol", "setting": "[7]", "result": 5.8, "unit": "unitless"},
      {"measurement": "Improvement In Selectivity for 44 ug/ml Type II Collagen vs no Type II Collagen", "setting": "[8]", "result": 46, "unit": "fold"},
      {"measurement": "Selectivity v Col-3, + 1.6 ug/ml TIICol", "setting": "[8]", "result": 3, "unit": "unitless"},
      {"measurement": "Selectivity v Col-3, + 4.9 ug/ml TIICol", "setting": "[8]", "result": 5.7, "unit": "unitless"},
      {"measurement": "Selectivity v Col-3, + 15 ug/ml TIICol", "setting": "[8]", "result": 15.2, "unit": "unitless"},
      {"measurement": "Selectivity v Col-3, + 44 ug/ml TIICol", "setting": "[8]", "result": 58.8, "unit": "unitless"},
      {"measurement": "Selectivity v Col-3, + .18 ug/ml TIICol", "setting": "[8]", "result": 1.8, "unit": "unitless"},
      {"measurement": "Selectivity v Col-3, + .55 ug/ml TIICol", "setting": "[8]", "result": 2.2, "unit": "unitless"},
      {"measurement": "Selectivity v Col-3, no TIICol", "setting": "[8]", "result": 1.3, "unit": "unitless"},
      {"measurement": "Improvement In Selectivity for 44 ug/ml Type II Collagen vs no Type II Collagen", "setting": "[9]", "result": 2.5, "unit": "fold"},
      {"measurement": "Selectivity v Col-3, + 1.6 ug/ml TIICol", "setting": "[9]", "result": 227, "unit": "unitless"},
      {"measurement": "Selectivity v Col-3, + 4.9 ug/ml TIICol", "setting": "[9]", "result": 265, "unit": "unitless"},
      {"measurement": "Selectivity v Col-3, + 15 ug/ml TIICol", "setting": "[9]", "result": 355, "unit": "unitless"},
      {"measurement": "Selectivity v Col-3, + 44 ug/ml TIICol", "setting": "[9]", "result": 424, "unit": "unitless"},
      {"measurement": "Selectivity v Col-3, + .18 ug/ml TIICol", "setting": "[9]", "result": 190, "unit": "unitless"},
      {"measurement": "Selectivity v Col-3, + .55 ug/ml TIICol", "setting": "[9]", "result": 221, "unit": "unitless"},
      {"measurement": "Selectivity v Col-3, no TIICol", "setting": "[9]", "result": 166, "unit": "unitless"},
      {"measurement": "Improvement In Selectivity for 44 ug/ml Type II Collagen vs no Type II Collagen", "setting": "[10]", "result": 2.5, "unit": "fold"},
      {"measurement": "Selectivity v Col-3, + 1.6 ug/ml TIICol", "setting": "[10]", "result": 389, "unit": "unitless"},
      {"measurement": "Selectivity v Col-3, + 4.9 ug/ml TIICol", "setting": "[10]", "result": 335, "unit": "unitless"},
      {"measurement": "Selectivity v Col-3, + 15 ug/ml TIICol", "setting": "[10]", "result": 447, "unit": "unitless"},
      {"measurement": "Selectivity v Col-3, + 44 ug/ml TIICol", "setting": "[10]", "result": 476, "unit": "unitless"},
      {"measurement": "Selectivity v Col-3, + .18 ug/ml TIICol", "setting": "[10]", "result": 263, "unit": "unitless"},
      {"measurement": "Selectivity v Col-3, + .55 ug/ml TIICol", "setting": "[10]", "result": 281, "unit": "unitless"},
      {"measurement": "Selectivity v Col-3, no TIICol", "setting": "[10]", "result": 192, "unit": "unitless"}
    ]}
  ]
}
